Assay results as given in paper PMC3762362.

Biological target: Endogenous bovine Arp2/3 complex, A7MB62;P61157
Assay: fluorescence anisotropy competition assay
Settings: chain shown with the change; reporter 20 nM VVCA-A462C-AF594; mixture incubated for 10 min prior to measurement; parent: est. 6.0 nM; read off a plot

Kd: 20 nM
B1: GST-VCA (GST fusion of N-WASP residues 432–505), O00401 I467A (protein)
chain: SGRDALLDQIRQGIQLKSVADGQESTPPTPAPTSGAVGALMEVMQKRSKAIHSSDEDEDEDDEEDFEDDDEWED
